The chains are these.
B1: HDV Ribozyme (parent)
chain: GGCCGGCAUGGUCCCAGCCUCCUCGCUGGCGCCGGCUGGGCAACAUUCCGAGGGGACCGUCCCCUCGGUAAUGGCGAAUGGGACCCA

In this data set the parent is B1. The data set is described as follows: self-cleavage, relative activity (ratio to wild type); higher = more cleavage; co-transcriptional.
GGCCGGCAUGGUCCCAGCCUCCUGGCUGGCGCCGGCUGGGCAACUUUCCGAGGGGACCGUCCCCUCGGUAAUGGCGAAUGGGACCCA [C24G A45U]: the self-cleavage was 0.0504.

On to GGCCGGCAUGGUCCCAGCCUCCUAGCUGGCGCCGGCUGGGCAACAUUCCGAGGGGACCGUCCCCUCGGUAAUGGCGAAUGUGACCCA [C24A G81U], for which the self-cleavage is 0.185.

In the case of GGCCGGCAUGGUCCCAGCCUCCUAGCUGGCGCCGGCUGGGCAACAUUCCGAGGGGACCAUCCCCUCGGUAAUGGCGAAUGGGACCCA [C24A G59A], the self-cleavage stood at 0.842.

For the variant GGCCGGCAUGGUCCCAGCCUCCUGGCUGGCGCCGGCUGGGCAACAUUCCGAGGGGACCGUCCCCUCGAUAAUGGCGAAUGGGACCCA [C24G G68A], the self-cleavage is 0.22.

Regarding GGCCGGCAUGGUCCCAGCCUCCUGGCUGGCGCCGGCUGGGCAACAUUCCGAGGGGACCGUCCCCUCGGUAAUGGCGAAUGGGAACCA [C24G C84A], the self-cleavage turned out to be 0.123.

Turning to GGCCGGCAUGGUCCCAGCCUCCUAGCUGGCGCCGGCUGGGCAACAUUCCGAGGGGACCGUCCCCUCGGCAAUGGCGAAUGGGACCCA [C24A U69C], the self-cleavage amounted to 0.712.

Take GGCCGGCAUGGUCCCAGCCUCCUAGCUGGCGCCGGCUGGGCAACAUUCCGAGGGGACCGUCCCCUCGGGAAUGGCGAAUGGGACCCA [C24A U69G]: the self-cleavage turned out to be 0.623.

Turning to GGCCGGCAUGGUCCCAGCCUCCUGGCUGGCGCCGGCUGGGCAACAUUCCGAGGGAACCGUCCCCUCGGUAAUGGCGAAUGGGACCCA [C24G G55A], the self-cleavage stood at 0.166.

Take GGCCGGCAUGGUCCCAGCCUCCUAGCUGGCGCCGGCUGGGCAACAUUCCGAGGCGACCGUCCCCUCGGUAAUGGCGAAUGGGACCCA [C24A G54C]: the self-cleavage amounted to 0.741.

As for GGCCGGCAUGGUCCCAGCCUCCUAGCUGGCGCCGGCUGGGCAACAUUCCGAGGAGACCGUCCCCUCGGUAAUGGCGAAUGGGACCCA [C24A G54A], the self-cleavage was determined as 0.774.

Regarding GGCCGGCAUGGUCCCAGCCUCCUGGCUGGCGCCGGCUGGGCAACAUUCCGAGAGGACCGUCCCCUCGGUAAUGGCGAAUGGGACCCA [C24G G53A], the self-cleavage was 0.18.

For the variant GGCCGGCAUGGUCCCAGCCUCCUGGCUGGCGCCGGCUGGGCAACAUUCCGAGCGGACCGUCCCCUCGGUAAUGGCGAAUGGGACCCA [C24G G53C], the self-cleavage turned out to be 0.0817.

For GGCCGGCAUGGUCCCAGCCUCCUGGCUGGGGCCGGCUGGGCAACAUUCCGAGGGGACCGUCCCCUCGGUAAUGGCGAAUGGGACCCA [C24G C30G], the self-cleavage is 0.0875.

Turning to GGCCGGCAUGGUCCCAGCCUCCUGGCUGGCGCCGGCUGGGCAACAUUCCGAGGGGACCGUCCCCUCGGUAAUGGCGAUUGGGACCCA [C24G A78U], the self-cleavage came to 0.

As for GGCCGGCAUGGUCCCAGCCUCCUGGAUGGCGCCGGCUGGGCAACAUUCCGAGGGGACCGUCCCCUCGGUAAUGGCGAAUGGGACCCA [C24G C26A], the self-cleavage amounted to 0.886.

Take GGCCGGCAUGGUCCCAGCCUCCUGGCUGGCGCCGGCUGGGCAACAUUCCGAGGGGACCGUGCCCUCGGUAAUGGCGAAUGGGACCCA [C24G C61G]: the self-cleavage amounted to 0.0264.

In the case of GGCCGGCAUGGUCCCAGCCUCCUGGCUGGCGCCGGCUGGGCAACAUUCCGAGGGGACCGUACCCUCGGUAAUGGCGAAUGGGACCCA [C24G C61A], the self-cleavage was 0.112.

Consider GGCCGGCAUGGUCCCAGCCUCCUGGCUGGCGCCGGCUGGGCAACAUUCCGAGGGGACCGUCACCUCGGUAAUGGCGAAUGGGACCCA [C24G C62A], for which the self-cleavage was found to be 0.0272.

Consider GGCCGGCAUGGUCCCAGCCUCCUGGCUGGCGCCGGCUGGGCAACAUUCCGAGGGGACCGUCCCCUCGGUAAUGGCGAAUGGUACCCA [C24G G82U], for which the self-cleavage amounted to 0.0302.

For GGCCGGCAUGGUCCCAGCCUCCUUGCUGGCGCCGGCUGGGCUACAUUCCGAGGGGACCGUCCCCUCGGUAAUGGCGAAUGGGACCCA [C24U A42U], the self-cleavage was determined as 0.17.

Consider GGCCGGCAUGGUCCCAGCCUCCUUGCUGGCGCCGGCUGGGCCACAUUCCGAGGGGACCGUCCCCUCGGUAAUGGCGAAUGGGACCCA [C24U A42C], for which the self-cleavage came to 0.125.

For the variant GGCCGGCAUGGUCCCAGCCUCCUGGCUGGCGCCGGCUGGGCGACAUUCCGAGGGGACCGUCCCCUCGGUAAUGGCGAAUGGGACCCA [C24G A42G], the self-cleavage worked out at 0.185.

In the case of GGCCGGCAUGGUCCCAGCCUCCUGGCUGGCGCCGGCUGGGCUACAUUCCGAGGGGACCGUCCCCUCGGUAAUGGCGAAUGGGACCCA [C24G A42U], the self-cleavage came to 0.

For GGCCGGCAUGGUCCCAGCCUCCUAGCCGGCGCCGGCUGGGCAACAUUCCGAGGGGACCGUCCCCUCGGUAAUGGCGAAUGGGACCCA [C24A U27C], the self-cleavage amounted to 0.0791.

As for GGCCGGCAUGGUCCCAGCCUCCUAGCAGGCGCCGGCUGGGCAACAUUCCGAGGGGACCGUCCCCUCGGUAAUGGCGAAUGGGACCCA [C24A U27A], the self-cleavage came to 0.639.

Consider GGCCGGCAUGGUCCCAGCCUCCUUGCUGGCGCCGGCUGGGCAACAUUCCGAGGGGACCGUCCCCUCGGUCAUGGCGAAUGGGACCCA [C24U A70C], for which the self-cleavage came to 0.573.

Turning to GGCCGGCAUGGUCCCAGCCUCCUUGCUGGCGCCGGCUGGGCAACAUUCCGAGGGGACCGUCCCCUCGGUGAUGGCGAAUGGGACCCA [C24U A70G], the self-cleavage was found to be 0.706.

Turning to GGCCGGCAUGGUCCCAGCCUCCUAGCUGGCGCCGGCUGGGCAACAUUCCGAGGGGACCGACCCCUCGGUAAUGGCGAAUGGGACCCA [C24A U60A], the self-cleavage was found to be 0.535.

GGCCGGCAUGGUCCCAGCCUCCUGGCUGGCGCCGGCUGGGCAACAUUCCGAGGGGACCGUCCCCUCGGUAAUGACGAAUGGGACCCA [C24G G74A]: the self-cleavage came to 0.124.

Turning to GGCCGGCAUGGUCCCAGCCUCCUGGCUGGCGCCGGCUGGGCAACAUUCCGAGGGGACCGUCCCCUCGGUAAUGCCGAAUGGGACCCA [C24G G74C], the self-cleavage came out at 0.109.

As to GGCCGGCAUGGUCCCAGCCUCCUUGCUGGCGCCGGCUGGGCAACAUUCCGAGGGGACCGUCCCCUCGGUAAUGGCGGAUGGGACCCA [C24U A77G], the self-cleavage came out at 0.53.

As to GGCCGGCAUGGUCCCAGCCUCCUGGCUGGCGCCGGCUGGGCAACAUUCCGAGGGGAUCGUCCCCUCGGUAAUGGCGAAUGGGACCCA [C24G C57U], the self-cleavage worked out at 0.14.

The values are drawn from the RNAGym collection of RNA variant scans (doi:10.7554/elife.80360).
